Reference: patent US20130137631A1

Molecular target: T1, human GIP receptor (human), P48546
T1 chain: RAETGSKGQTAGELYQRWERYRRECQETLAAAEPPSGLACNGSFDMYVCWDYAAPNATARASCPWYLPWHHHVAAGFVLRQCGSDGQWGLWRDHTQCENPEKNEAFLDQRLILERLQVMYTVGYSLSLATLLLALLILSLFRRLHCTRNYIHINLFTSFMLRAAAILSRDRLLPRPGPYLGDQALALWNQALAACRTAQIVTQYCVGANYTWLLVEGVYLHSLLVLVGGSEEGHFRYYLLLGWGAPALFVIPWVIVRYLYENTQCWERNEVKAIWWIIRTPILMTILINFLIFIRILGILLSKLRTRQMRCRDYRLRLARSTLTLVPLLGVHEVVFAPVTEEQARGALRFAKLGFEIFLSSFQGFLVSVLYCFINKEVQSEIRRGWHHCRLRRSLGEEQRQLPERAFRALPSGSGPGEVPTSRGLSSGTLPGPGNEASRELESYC
Test: 125I-GIP displacement, HEK-GIPR membranes

YAEGTFISDYSIALDKIAQQEFVNWLLAQKPSSGAPPKSK (modifications not checked) [0601GIP5097] was tested, and the % Inh 10 nM was 101%.

In the case of YAEGTFISDYSIALEKIRQQEFVNWLLAQKPSSGAPPNSK (modifications not checked) [0601GIP5098], the % Inh 10 nM is reported as 97%.

Work on HAEGTFISDYSIAMDKIHQQDFVNWLLAQKPKKIRYS (modifications not checked) [0601GIP4838] yielded a % Inh 10 nM of 34.3%.

YAEGTFISDYSIAMDKIHQQDFVNQLLAQKPKKIRYS (modifications not checked) [0601GIP4845] was tested, and the % Inh 10 nM was 69.5%.

Binder YAEGTFISDYSIAMDKIHQQDFVNWLLAQKPKKQRYS (modifications not checked) [0601GIP4914] has a % Inh 10 nM of 96.3%.

In the case of YAEGTFISDYSIAMDKIHQQDFVNWLLAQKPKQIRYS (modifications not checked) [0601GIP4854], the % Inh 10 nM is reported as 93.5%.

Binder YAEGTFISDYSIAMDKIHQQDFVNWLLAQKPKKARYS (modifications not checked) [0601GIP4856] has a % Inh 10 nM of 83.7%.

YAEGTFISDYSIAMDKIHQQDFVNWLLAQKPKNIRYS (modifications not checked) [0601GIP4852] gave a % Inh 10 nM of 90%.

YAEGTFISDYSIAMDKIHQQDFVNWLLAQKPQQIRYS (modifications not checked) [0601GIP4855] gave a % Inh 10 nM of 78.8% and an IC50 of 0.72 nM.

YAEGTFISDYSIAMDKIHQQDFVNWLLAQKPNKIRYS (modifications not checked) [0601GIP4851] showed a % Inh 10 nM of 87%.

For YAEGTFISDYSIAMDKIHQQDFVNWLLAQKPKKIQYS (modifications not checked) [0601GIP4913], the % Inh 10 nM was 92.1%.

YAEGTFISDYSIAMDKIHQQDFVNWLLAQKPQKIRYS (modifications not checked) [0601GIP4853] was tested, and the % Inh 10 nM was 91%.

YAEGTFISDYSIAMDKIHQQDFVQWLLAQKPKKIRYS (modifications not checked) [0601GIP4865 (row r89, Gln24)] showed a % Inh 10 nM of 85.6%.
